Data from patent US20240270846A1 (published 2024).

Target: T1, CD3 epsilon homodimer protein (UniProt P07766 23-126)
T1 construct: also called CD3 (CD3 epsilon)
Experiment: SPR Biacore T200, antibody over immobilised CD3e homodimer;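 further: CD3 epsilon homodimer amine-coupled on a CM4 chip, run at 25 °C in HBS-EP+, Z = bound amount of each single-residue H chain variant over that of the parent antibody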

T1 sequence (P07766 23-126): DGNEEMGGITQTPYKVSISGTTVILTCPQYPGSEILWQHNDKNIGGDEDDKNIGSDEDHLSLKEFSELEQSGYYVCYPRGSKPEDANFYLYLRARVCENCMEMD

Binder | ratio of amounts bound (Z=Y/X vs CE115HA000)
CE115HA000 H35K one-arm antibody (antibody, human IgG1, kappa, L234A L235A, N297A, name in Kabat numbering, one-arm antibody) heavy: QVQLVESGGGVVQPGRSLRLSCAASGFTFSNAWMKWVRQAPGKGLEWVAQIKAKSNNYATYYAESVKGRFTISRDDSKNSLYLQMNSLKTEDTAVYYCRYVHYGAYYGVDAWGQGTTVTVSSASTKGPSVFPLAPSSKSTSGGTAALGCLVKDYFPEPVTVSWNSGALTSGVHTFPAVLQSSGLYSLSSVVTVPSSSLGTQTYICNVNHKPSNTKVDKKVEPKSCDKTHTCPPCPAPEAAGGPSVFLFPPKPKDTLMISRTPEVTCVVVDVSHEDPEVKFNWYVDGVEVHNAKTKPREEQYASTYRVVSVLTVLHQDWLNGKEYKCKVSNKALPAPIEKTISKAKGQPREPQVYTLPPSRCELTKNQVSLSCAVKGFYPSDIAVEWESNGQPENNYKTTPPVLDSDGSFFLVSKLTVDKSRWQQGNVFSCSVMHEALHNHYTQKSLSLSPDYKDDDDK EPKSSDKTHTCPPCPAPELLGGPSVFLFPPKPKDTLMISRTPEVTCVVVDVSHEDPEVKFNWYVDGVEVHNAKTKPREEQYNSTYRVVSVLTVLHQDWLNGKEYKCKVSNKALPAPIEKTISKAKGQPREPQVCTLPPSRDELTKNQVSLWCLVKGFYPSDIAVEWESNGQPENNYKTTPPVLDSDGSFFLYSKLTVDKSRWQQGNVFSCSVMHEALHNRYTQKSLSLSP light: DIVMTQSPLSLPVTPGEPASISCRSSQSLVHSNRNTYLHWYQQKPGQAPRLLIYKVSNRFSGVPDRFSGSGSGTDFTLKISRVEAEDVGVYYCGQGTQVPYTFGQGTKLEIKRTVAAPSVFIFPPSDEQLKSGTASVVCLLNNFYPREAKVQWKVDNALQSGNSQESVTEQDSKDSTYSLSSTLTLSKADYEKHKVYACEVTHQGLSSPVTKSFNRGEC | 0.15
CE115HA000 H35R one-arm antibody (antibody, human IgG1, kappa, L234A L235A, N297A, name in Kabat numbering, one-arm antibody) heavy: QVQLVESGGGVVQPGRSLRLSCAASGFTFSNAWMRWVRQAPGKGLEWVAQIKAKSNNYATYYAESVKGRFTISRDDSKNSLYLQMNSLKTEDTAVYYCRYVHYGAYYGVDAWGQGTTVTVSSASTKGPSVFPLAPSSKSTSGGTAALGCLVKDYFPEPVTVSWNSGALTSGVHTFPAVLQSSGLYSLSSVVTVPSSSLGTQTYICNVNHKPSNTKVDKKVEPKSCDKTHTCPPCPAPEAAGGPSVFLFPPKPKDTLMISRTPEVTCVVVDVSHEDPEVKFNWYVDGVEVHNAKTKPREEQYASTYRVVSVLTVLHQDWLNGKEYKCKVSNKALPAPIEKTISKAKGQPREPQVYTLPPSRCELTKNQVSLSCAVKGFYPSDIAVEWESNGQPENNYKTTPPVLDSDGSFFLVSKLTVDKSRWQQGNVFSCSVMHEALHNHYTQKSLSLSPDYKDDDDK EPKSSDKTHTCPPCPAPELLGGPSVFLFPPKPKDTLMISRTPEVTCVVVDVSHEDPEVKFNWYVDGVEVHNAKTKPREEQYNSTYRVVSVLTVLHQDWLNGKEYKCKVSNKALPAPIEKTISKAKGQPREPQVCTLPPSRDELTKNQVSLWCLVKGFYPSDIAVEWESNGQPENNYKTTPPVLDSDGSFFLYSKLTVDKSRWQQGNVFSCSVMHEALHNRYTQKSLSLSP light: DIVMTQSPLSLPVTPGEPASISCRSSQSLVHSNRNTYLHWYQQKPGQAPRLLIYKVSNRFSGVPDRFSGSGSGTDFTLKISRVEAEDVGVYYCGQGTQVPYTFGQGTKLEIKRTVAAPSVFIFPPSDEQLKSGTASVVCLLNNFYPREAKVQWKVDNALQSGNSQESVTEQDSKDSTYSLSSTLTLSKADYEKHKVYACEVTHQGLSSPVTKSFNRGEC | 0.14
CE115HA000 H35L one-arm antibody (antibody, human IgG1, kappa, L234A L235A, N297A, name in Kabat numbering, one-arm antibody) heavy: QVQLVESGGGVVQPGRSLRLSCAASGFTFSNAWMLWVRQAPGKGLEWVAQIKAKSNNYATYYAESVKGRFTISRDDSKNSLYLQMNSLKTEDTAVYYCRYVHYGAYYGVDAWGQGTTVTVSSASTKGPSVFPLAPSSKSTSGGTAALGCLVKDYFPEPVTVSWNSGALTSGVHTFPAVLQSSGLYSLSSVVTVPSSSLGTQTYICNVNHKPSNTKVDKKVEPKSCDKTHTCPPCPAPEAAGGPSVFLFPPKPKDTLMISRTPEVTCVVVDVSHEDPEVKFNWYVDGVEVHNAKTKPREEQYASTYRVVSVLTVLHQDWLNGKEYKCKVSNKALPAPIEKTISKAKGQPREPQVYTLPPSRCELTKNQVSLSCAVKGFYPSDIAVEWESNGQPENNYKTTPPVLDSDGSFFLVSKLTVDKSRWQQGNVFSCSVMHEALHNHYTQKSLSLSPDYKDDDDK EPKSSDKTHTCPPCPAPELLGGPSVFLFPPKPKDTLMISRTPEVTCVVVDVSHEDPEVKFNWYVDGVEVHNAKTKPREEQYNSTYRVVSVLTVLHQDWLNGKEYKCKVSNKALPAPIEKTISKAKGQPREPQVCTLPPSRDELTKNQVSLWCLVKGFYPSDIAVEWESNGQPENNYKTTPPVLDSDGSFFLYSKLTVDKSRWQQGNVFSCSVMHEALHNRYTQKSLSLSP light: DIVMTQSPLSLPVTPGEPASISCRSSQSLVHSNRNTYLHWYQQKPGQAPRLLIYKVSNRFSGVPDRFSGSGSGTDFTLKISRVEAEDVGVYYCGQGTQVPYTFGQGTKLEIKRTVAAPSVFIFPPSDEQLKSGTASVVCLLNNFYPREAKVQWKVDNALQSGNSQESVTEQDSKDSTYSLSSTLTLSKADYEKHKVYACEVTHQGLSSPVTKSFNRGEC | 0.11
CE115HA000 H35N one-arm antibody (antibody, human IgG1, kappa, L234A L235A, N297A, name in Kabat numbering, one-arm antibody) heavy: QVQLVESGGGVVQPGRSLRLSCAASGFTFSNAWMNWVRQAPGKGLEWVAQIKAKSNNYATYYAESVKGRFTISRDDSKNSLYLQMNSLKTEDTAVYYCRYVHYGAYYGVDAWGQGTTVTVSSASTKGPSVFPLAPSSKSTSGGTAALGCLVKDYFPEPVTVSWNSGALTSGVHTFPAVLQSSGLYSLSSVVTVPSSSLGTQTYICNVNHKPSNTKVDKKVEPKSCDKTHTCPPCPAPEAAGGPSVFLFPPKPKDTLMISRTPEVTCVVVDVSHEDPEVKFNWYVDGVEVHNAKTKPREEQYASTYRVVSVLTVLHQDWLNGKEYKCKVSNKALPAPIEKTISKAKGQPREPQVYTLPPSRCELTKNQVSLSCAVKGFYPSDIAVEWESNGQPENNYKTTPPVLDSDGSFFLVSKLTVDKSRWQQGNVFSCSVMHEALHNHYTQKSLSLSPDYKDDDDK EPKSSDKTHTCPPCPAPELLGGPSVFLFPPKPKDTLMISRTPEVTCVVVDVSHEDPEVKFNWYVDGVEVHNAKTKPREEQYNSTYRVVSVLTVLHQDWLNGKEYKCKVSNKALPAPIEKTISKAKGQPREPQVCTLPPSRDELTKNQVSLWCLVKGFYPSDIAVEWESNGQPENNYKTTPPVLDSDGSFFLYSKLTVDKSRWQQGNVFSCSVMHEALHNRYTQKSLSLSP light: DIVMTQSPLSLPVTPGEPASISCRSSQSLVHSNRNTYLHWYQQKPGQAPRLLIYKVSNRFSGVPDRFSGSGSGTDFTLKISRVEAEDVGVYYCGQGTQVPYTFGQGTKLEIKRTVAAPSVFIFPPSDEQLKSGTASVVCLLNNFYPREAKVQWKVDNALQSGNSQESVTEQDSKDSTYSLSSTLTLSKADYEKHKVYACEVTHQGLSSPVTKSFNRGEC | 0.35
CE115HA000 H35Q one-arm antibody (antibody, human IgG1, kappa, L234A L235A, N297A, name in Kabat numbering, one-arm antibody) heavy: QVQLVESGGGVVQPGRSLRLSCAASGFTFSNAWMQWVRQAPGKGLEWVAQIKAKSNNYATYYAESVKGRFTISRDDSKNSLYLQMNSLKTEDTAVYYCRYVHYGAYYGVDAWGQGTTVTVSSASTKGPSVFPLAPSSKSTSGGTAALGCLVKDYFPEPVTVSWNSGALTSGVHTFPAVLQSSGLYSLSSVVTVPSSSLGTQTYICNVNHKPSNTKVDKKVEPKSCDKTHTCPPCPAPEAAGGPSVFLFPPKPKDTLMISRTPEVTCVVVDVSHEDPEVKFNWYVDGVEVHNAKTKPREEQYASTYRVVSVLTVLHQDWLNGKEYKCKVSNKALPAPIEKTISKAKGQPREPQVYTLPPSRCELTKNQVSLSCAVKGFYPSDIAVEWESNGQPENNYKTTPPVLDSDGSFFLVSKLTVDKSRWQQGNVFSCSVMHEALHNHYTQKSLSLSPDYKDDDDK EPKSSDKTHTCPPCPAPELLGGPSVFLFPPKPKDTLMISRTPEVTCVVVDVSHEDPEVKFNWYVDGVEVHNAKTKPREEQYNSTYRVVSVLTVLHQDWLNGKEYKCKVSNKALPAPIEKTISKAKGQPREPQVCTLPPSRDELTKNQVSLWCLVKGFYPSDIAVEWESNGQPENNYKTTPPVLDSDGSFFLYSKLTVDKSRWQQGNVFSCSVMHEALHNRYTQKSLSLSP light: DIVMTQSPLSLPVTPGEPASISCRSSQSLVHSNRNTYLHWYQQKPGQAPRLLIYKVSNRFSGVPDRFSGSGSGTDFTLKISRVEAEDVGVYYCGQGTQVPYTFGQGTKLEIKRTVAAPSVFIFPPSDEQLKSGTASVVCLLNNFYPREAKVQWKVDNALQSGNSQESVTEQDSKDSTYSLSSTLTLSKADYEKHKVYACEVTHQGLSSPVTKSFNRGEC | 0.13
CE115HA000 H35M one-arm antibody (antibody, human IgG1, kappa, L234A L235A, N297A, name in Kabat numbering, one-arm antibody) heavy: QVQLVESGGGVVQPGRSLRLSCAASGFTFSNAWMMWVRQAPGKGLEWVAQIKAKSNNYATYYAESVKGRFTISRDDSKNSLYLQMNSLKTEDTAVYYCRYVHYGAYYGVDAWGQGTTVTVSSASTKGPSVFPLAPSSKSTSGGTAALGCLVKDYFPEPVTVSWNSGALTSGVHTFPAVLQSSGLYSLSSVVTVPSSSLGTQTYICNVNHKPSNTKVDKKVEPKSCDKTHTCPPCPAPEAAGGPSVFLFPPKPKDTLMISRTPEVTCVVVDVSHEDPEVKFNWYVDGVEVHNAKTKPREEQYASTYRVVSVLTVLHQDWLNGKEYKCKVSNKALPAPIEKTISKAKGQPREPQVYTLPPSRCELTKNQVSLSCAVKGFYPSDIAVEWESNGQPENNYKTTPPVLDSDGSFFLVSKLTVDKSRWQQGNVFSCSVMHEALHNHYTQKSLSLSPDYKDDDDK EPKSSDKTHTCPPCPAPELLGGPSVFLFPPKPKDTLMISRTPEVTCVVVDVSHEDPEVKFNWYVDGVEVHNAKTKPREEQYNSTYRVVSVLTVLHQDWLNGKEYKCKVSNKALPAPIEKTISKAKGQPREPQVCTLPPSRDELTKNQVSLWCLVKGFYPSDIAVEWESNGQPENNYKTTPPVLDSDGSFFLYSKLTVDKSRWQQGNVFSCSVMHEALHNRYTQKSLSLSP light: DIVMTQSPLSLPVTPGEPASISCRSSQSLVHSNRNTYLHWYQQKPGQAPRLLIYKVSNRFSGVPDRFSGSGSGTDFTLKISRVEAEDVGVYYCGQGTQVPYTFGQGTKLEIKRTVAAPSVFIFPPSDEQLKSGTASVVCLLNNFYPREAKVQWKVDNALQSGNSQESVTEQDSKDSTYSLSSTLTLSKADYEKHKVYACEVTHQGLSSPVTKSFNRGEC | 0.29
